Measurements taken from article PMC4695161.
One block for each substance: values may come before it.

Assays:
[1] = molecular target: antizyme inhibitor (Homo sapiens) (UniProt O14977); assay: analytical ultracentrifugation; settings: cited from earlier work
[2] = molecular target: ornithine decarboxylase (Homo sapiens) (UniProt P11926); assay: analytical ultracentrifugation; settings: cited from earlier work
[3] = molecular target: C-terminal AZ peptide AZ(100-228) (human) (UniProt P54368); assay: AUC; sedimentation velocity; AZ or AZ peptide at a fixed concentration, three concentrations of CCND1; 30 mM Tris-HCl pH 7.4, 50 mM NaCl; global fit (SEDPHAT) to A+B↔AB hetero-association
[4] = molecular target: human cyclin D1 (CCND1) (human) (UniProt P24385); assay: AUC; sedimentation velocity of CCND1 alone at 0.05, 0.1 and 0.3 mg/ml, 30 mM Tris-HCl pH 7.4, 20°C; global fit (SEDPHAT) to monomer-dimer equilibrium; dimer to monomers

Chain of human cyclin D1 (CCND1) (P24385 whole entry): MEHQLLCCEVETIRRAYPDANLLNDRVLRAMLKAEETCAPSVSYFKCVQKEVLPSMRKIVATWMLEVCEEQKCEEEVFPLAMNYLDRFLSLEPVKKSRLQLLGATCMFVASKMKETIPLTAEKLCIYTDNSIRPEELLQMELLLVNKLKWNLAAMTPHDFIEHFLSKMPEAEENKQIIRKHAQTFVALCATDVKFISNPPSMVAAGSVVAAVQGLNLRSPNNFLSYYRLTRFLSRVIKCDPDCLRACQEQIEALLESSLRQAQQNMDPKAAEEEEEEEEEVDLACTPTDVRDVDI
Chain of antizyme (P54368 whole entry): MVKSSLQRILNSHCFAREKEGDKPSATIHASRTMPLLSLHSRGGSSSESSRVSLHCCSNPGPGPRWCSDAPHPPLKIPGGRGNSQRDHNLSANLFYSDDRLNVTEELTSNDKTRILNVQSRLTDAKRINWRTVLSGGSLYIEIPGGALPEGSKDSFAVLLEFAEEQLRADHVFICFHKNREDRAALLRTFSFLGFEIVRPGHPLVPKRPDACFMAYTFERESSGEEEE
Chain of antizyme inhibitor (Homo sapiens) (O14977 whole entry): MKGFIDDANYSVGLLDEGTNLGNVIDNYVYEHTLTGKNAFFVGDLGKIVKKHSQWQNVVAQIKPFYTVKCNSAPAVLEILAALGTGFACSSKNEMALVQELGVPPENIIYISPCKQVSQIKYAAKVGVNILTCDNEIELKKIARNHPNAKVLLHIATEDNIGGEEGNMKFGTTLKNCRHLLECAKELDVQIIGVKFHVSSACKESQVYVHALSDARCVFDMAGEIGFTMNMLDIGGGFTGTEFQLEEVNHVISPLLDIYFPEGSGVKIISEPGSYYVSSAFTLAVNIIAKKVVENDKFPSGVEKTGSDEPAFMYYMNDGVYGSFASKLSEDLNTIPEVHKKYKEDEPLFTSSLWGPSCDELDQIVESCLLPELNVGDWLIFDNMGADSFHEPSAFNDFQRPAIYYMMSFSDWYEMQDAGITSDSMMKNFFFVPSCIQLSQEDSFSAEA
Chain of C-terminal AZ peptide AZ(100-228) (human) (P54368 100-228): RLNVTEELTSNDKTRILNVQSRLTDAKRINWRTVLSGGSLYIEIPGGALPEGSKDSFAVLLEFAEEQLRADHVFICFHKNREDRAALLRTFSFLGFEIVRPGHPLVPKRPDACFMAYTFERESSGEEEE
Chain of ornithine decarboxylase (Homo sapiens) (P11926 whole entry): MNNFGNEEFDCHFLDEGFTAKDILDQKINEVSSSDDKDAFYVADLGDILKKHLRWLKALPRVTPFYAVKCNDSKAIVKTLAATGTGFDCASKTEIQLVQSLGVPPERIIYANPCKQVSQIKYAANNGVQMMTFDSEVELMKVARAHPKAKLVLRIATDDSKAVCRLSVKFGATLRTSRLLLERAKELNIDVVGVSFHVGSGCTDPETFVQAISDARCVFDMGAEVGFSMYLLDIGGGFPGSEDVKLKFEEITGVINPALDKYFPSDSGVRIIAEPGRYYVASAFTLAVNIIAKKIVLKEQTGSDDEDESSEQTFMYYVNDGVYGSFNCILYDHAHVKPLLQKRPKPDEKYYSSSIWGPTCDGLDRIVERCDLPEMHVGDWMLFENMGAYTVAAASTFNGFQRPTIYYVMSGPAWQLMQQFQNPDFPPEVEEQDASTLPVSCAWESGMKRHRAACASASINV

Substance: antizyme (from UniProt P54368)
Kd [1]: 20 nM
Kd [2]: 210 nM

Kd [3]: 14100 nM
Substance: human cyclin D1 (CCND1) (from UniProt P24385 1-295) (natural protein)

Kd [4]: 3840 nM
stoichiometry N [4]: 2
Substance: human cyclin D1 (CCND1) (from UniProt P24385 1-295) (natural protein; other documents disagree on this pair)
